The assay has as its target AVR-Pii effector domain (residues 20 to 70), purified (Magnaporthe oryzae). Nature of the assay: ITC. For orientation: In ITC the heat of successive injections is recorded.

B1: OsExo70F2, N-terminally truncated, purified (domain or fragment)
chain: ISAAAFDAAEQLIQVWDGTPEALVFEATEDEVAEYLSAVDVAIEHLARGSGGGAGGAGSSSSSTAGRAGVAVQLAMARLEEELRHLMVRHAVPLDPTGLFFSLRRLSLGSMDDLDTSSEFDAATPHSIDVAPETARGGPLVNPFEDQVFDPVRPEAVDDLRAIADRMARAGYSRELADAYCGIRRDLLDEYLSALGVERLSIDEVQRIEWKHLNDKMKKWVQAVKTVVRVLLAGERRLCDQVLSVSDELREECFIESTKGCIMQILSFGDAVAVCPRSPEKLSRILDMYEALAEVIPEMKDLCLGSSGDGVISDVQANLDRLGDAIRGTLFEFGKVLQLESSRRAMTAGEIHPMTRYVMNYLRLLVVYSDTLDALLDDNADDQIDLARAEDQDQEHLESMTPLGKRLLKLISYLEANLEEKSKLYEDSALECIFSMNNLLYIVQKVRDSELGKILGDHWVKRRNGKIRQYSKSYLRISWMKVLSFLKDDGHGSGSGSSSGSGSGHSSSRMSIKEKFKNFNLAFEEIYRNQTTWKVPDPQLREELKISISENVIPAYRAFLGRYGSQVDGGRNSGKYIKYTPEDLESQLSDLFEGAPGPANHSRRRT
The term Kd denotes the concentration at which binding is half-saturated. B1 gave a Kd of less than 1 nM.

Source of the values: paper PMC9618136 (2022).
